# Reference: patent US20150125479A1
# Target: RSV fusion (F) glycoprotein (respiratory syncytial virus) (UniProt P12568)
# Assay: SPR (Biacore); the partner is not named in the row, RSV F protein is taken from the legend of FIG. 4
substance,measurement,value
"NUMAX™ (motavizumab), MEDI-524 Mab (antibody)",Kd,4 pM
